The text below walks through data of paper PMC7177284, “A Coil-to-Helix Transition Serves as a Binding Motif for hSNF5 and BAF155 Interaction” (International Journal of Molecular Sciences, 2020).

Assay [1] deals with BAF155^SWIRM (SWIRM domain of human BAF155, residues 449–546) (human) (UniProt Q92922). The experiment in a line: ITC; VP-ITC, 25 °C, 25 mM sodium phosphate, 100 mM NaCl, 1 mM TCEP, pH 7.0; typically 160 µM hSNF5 injected into 10 µM BAF155^SWIRM or mutant in the cell; single-site model. (In general: Isothermal titration calorimetry measures the heat released or taken up as one component is titrated into another.)
BAF155^SWIRM (SWIRM domain of human BAF155, residues 449–546) (human), sequence (Q92922 449-546): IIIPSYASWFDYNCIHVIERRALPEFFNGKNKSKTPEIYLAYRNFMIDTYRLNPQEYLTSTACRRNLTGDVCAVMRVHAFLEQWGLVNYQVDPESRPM

For assay [2], the target named is T1, BAF155^SWIRM (SWIRM domain of human BAF155, residues 449–546) (human, UniProt Q92922 449-546).
T1 construct: human BAF155, SWIRM domain, residues 449-546; 15N- or 13C,15N-labelled for the NMR experiments; also called BAF155/SRG3; source: E. coli BL21 (DE3), purified (Ni-NTA, TEV cleavage, Superdex 200); not shown: His6, N-terminal, cleaved
T1 sequence (Q92922 449-546): as above
The description is as above. Particulars: both partners purified.

The target of assay [3] is T1, BAF155^SWIRM (SWIRM domain of human …). The experiment in a line: SEC-MALS; Wyatt WTC-030S5 column, 0.5 mL/min, 10 mM HEPES pH 7.0, 100 mM NaCl, 2 mM DTT; hSNF5^171–258 0.2 mM and BAF155^SWIRM 0.3 mM, individually or together. Particulars: both partners purified. In general terms: In gel filtration, larger molecules generally elute earlier.
Assay [4] has the same target. The experiment in a line: ITC; VP-ITC, 25 °C, 25 mM sodium phosphate, 100 mM NaCl, 1 mM TCEP, pH 7.0; typically 160 µM hSNF5 injected into 10 µM BAF155^SWIRM or mutant in the cell; single-site model. The conditions noted are these: both partners purified. The source holds these as a separate data set.
The target of assay [5] is T2, BAF155^SWIRM N476A/N479A mutant (human, UniProt Q92922 449-546, N476A | N479A).
T2 construct: human BAF155, SWIRM domain, residues 449-546, N476A and N479A; PDB 6KZ7 holds the wild-type parent of the same limits; source: E. coli BL21 (DE3), purified (Ni-NTA, TEV cleavage, Superdex 200); not shown: His6, N-terminal, cleaved
T2 sequence (Q92922 449-546 N476A/N479A): as the sequence (Q92922 449-546) above, with N28A, N31A counted along it
The description is as above. The conditions noted are these: both partners purified.

In general, Kd refers to the equilibrium constant for the complex coming apart. A high value points to a looser complex. On to “hSNF5^SFH1/171–253 (chimeric mutant with the N-terminal tail region from the yeast protein SFH1) (from UniProt Q12824 185-253) (domain or fragment)”, for which, in assay [1], the Kd turned out to be 480 nM and the dH is -13.4 kcal/mol.

B1: hSNF5^181–253 (domain or fragment, human, UniProt Q12824 181-253, looked up)
chain: SQPEVLVPIRLDMEIDGQKLRDAFTWNMNEKLMTPEMFSEILCDDLDLNPLTFVPAIASAIRQQIESYPTDSI
notes: human SNF5 (hSNF5), residues 181-253; source: E. coli BL21 (DE3), purified (Ni-NTA, TEV cleavage, Superdex 200); not shown: His6, N-terminal, cleaved
For B1, in assay [2], the affinity, expressed as Kd, was 300 ± 70 nM and the dH is -12.9 ± 0.4 kcal/mol.

B2: hSNF5^179–253 (domain or fragment, human, UniProt Q12824 179-253, looked up)
chain: NASQPEVLVPIRLDMEIDGQKLRDAFTWNMNEKLMTPEMFSEILCDDLDLNPLTFVPAIASAIRQQIESYPTDSI
notes: human SNF5 (hSNF5), residues 179-253; source: E. coli BL21 (DE3), purified (Ni-NTA, TEV cleavage, Superdex 200); not shown: His6, N-terminal, cleaved
In assay [2], B2 registered a Kd of 300 ± 50 nM and a dH of -21 ± 0.6 kcal/mol.

B3: hSNF5^171–258 (N- and C-terminal elongated hSNF5 RPT1 domain) (domain or fragment, human, UniProt Q12824 171-258, looked up)
chain: HDPAVIHENASQPEVLVPIRLDMEIDGQKLRDAFTWNMNEKLMTPEMFSEILCDDLDLNPLTFVPAIASAIRQQIESYPTDSILEDQS
notes: 15N- or 13C,15N-labelled for the NMR experiments; modified pET21b vector; also called human SNF5; SNF5/INI1/BAF47; source: E. coli BL21 (DE3), purified (Ni-NTA, TEV cleavage, Superdex 200); not shown: His6, N-terminal, cleaved
One may read the stoichiometry N as a count of units in the complex or per binding partner. As to B3, the “stoichiometry N” value in assay [3] came to 1.

B4: hSNF5^171–253 (domain or fragment, human, UniProt Q12824 171-253, looked up)
chain: HDPAVIHENASQPEVLVPIRLDMEIDGQKLRDAFTWNMNEKLMTPEMFSEILCDDLDLNPLTFVPAIASAIRQQIESYPTDSI
notes: source: E. coli BL21 (DE3), purified (Ni-NTA, TEV cleavage, Superdex 200); not shown: His6, N-terminal, cleaved
With B4, the “stoichiometry N” value in assay [4] amounted to 1. In assay [5], this molecule came in with a Kd of 140 ± 30 nM and a dH of -17.7 ± 0.7 kcal/mol. In assay [2], this molecule displayed a Kd of 110 ± 20 nM and a dH of -19.7 ± 0.3 kcal/mol.

B5: hSNF5^171–253 with the E184A mutation (domain or fragment, human, UniProt Q12824 171-253, looked up)
chain: HDPAVIHENASQPAVLVPIRLDMEIDGQKLRDAFTWNMNEKLMTPEMFSEILCDDLDLNPLTFVPAIASAIRQQIESYPTDSI
notes: as for B4
In assay [2], B5 gave a Kd of 370 ± 100 nM and a dH of -11.2 ± 0.4 kcal/mol.

B6: hSNF5^186–253 (domain or fragment, human, UniProt Q12824 186-253, looked up)
chain: LVPIRLDMEIDGQKLRDAFTWNMNEKLMTPEMFSEILCDDLDLNPLTFVPAIASAIRQQIESYPTDSI
notes: human SNF5 (hSNF5), residues 186-253; source: E. coli BL21 (DE3), purified (Ni-NTA, TEV cleavage, Superdex 200); not shown: His6, N-terminal, cleaved
Turning to B6, in assay [2], the Kd stood at 760 ± 80 nM and the dH was -16 ± 0.3 kcal/mol.

B7: hSNF5^174–253 (domain or fragment, human, UniProt Q12824 174-253, looked up)
chain: AVIHENASQPEVLVPIRLDMEIDGQKLRDAFTWNMNEKLMTPEMFSEILCDDLDLNPLTFVPAIASAIRQQIESYPTDSI
notes: human SNF5 (hSNF5), residues 174-253; source: E. coli BL21 (DE3), purified (Ni-NTA, TEV cleavage, Superdex 200); not shown: His6, N-terminal, cleaved
With B7, in assay [2], binding was characterised by a dissociation constant (Kd) of 110 ± 30 nM and the dH is -15.8 ± 0.5 kcal/mol.

B8: hSNF5^183–253 (domain or fragment, human, UniProt Q12824 183-253, looked up)
chain: PEVLVPIRLDMEIDGQKLRDAFTWNMNEKLMTPEMFSEILCDDLDLNPLTFVPAIASAIRQQIESYPTDSI
notes: human SNF5 (hSNF5), residues 183-253; also called whole αN helix-deletion mutant; source: E. coli BL21 (DE3), purified (Ni-NTA, TEV cleavage, Superdex 200); not shown: His6, N-terminal, cleaved
Consider B8, for which, in assay [2], the dissociation constant Kd was found to be 290 ± 80 nM and the dH is -18.7 ± 0.8 kcal/mol.
